Experiments:
[1] = biological target: T1, activated human coagulation factor XI (hFXIa) (human, UniProt P03951 19-625, limits assumed); experiment: cell-based or functional assay
[2] = biological target: T1, activated human coagulation factor XI …; experiment: ELISA, lyophilized formulation after 36 months at 2-8 C, relative to BAY 1213790 reference standard
[3] = biological target: T1, activated human coagulation factor XI …; experiment: SPR (Biacore), binding of lyophilized formulation test sample at t0 to human FXIa, relative to BAY 1213790 reference standard
Description: The binding of the BAY 1213790 test sample and of the BAY 1213790 reference standard to human factor XIa (FXIa) antigen is determined by surface plasmon resonance spectroscopy (SPR, Biacore). The binding affinity of the test sample is compared to the BAY 1213790 reference standard.

Activity relative to reference (Bioassay), t0 [1]: 104%
Activity relative to reference (Bioassay), t = 36 months at 2-8 C [1]: 101%
Activity relative to reference (ELISA) [2]: 104%
Activity relative to reference (Biacore) [3]: 108%
B1: BAY1213790 (antibody, human IgG1, kappa, V domains shown)
VH: EVQLLESGGGLVQPGGSLRLSCAASGFTFSQYGMDWVRQAPGKGLEWVSGIGPSGGSTVYADSVKGRFTISRDNSKNTLYLQMNSLRAEDTAVYYCTRGGPYYYYGMDVWGQGTTVTVSS
VL: DIQMTQSPSSLSASVGDRVTITCQASQDISNYLNWYQQKPGKAPKLLIYDASNLETGVPSRFSGSGSGTDFTFTISSLQPEDIATYYCQQADSFPVTFGGGTKVEIKR
notes: Human monoclonal IgG; also called anti-FXIa antibody; anti-hFXIa monoclonal antibody
